The record followed here is IntAct's records for PubMed 24352239.

This assay addresses spt16_yeast SPT16 (UniProt P32558).

Sequence of spt16_yeast SPT16 (P32558 whole entry): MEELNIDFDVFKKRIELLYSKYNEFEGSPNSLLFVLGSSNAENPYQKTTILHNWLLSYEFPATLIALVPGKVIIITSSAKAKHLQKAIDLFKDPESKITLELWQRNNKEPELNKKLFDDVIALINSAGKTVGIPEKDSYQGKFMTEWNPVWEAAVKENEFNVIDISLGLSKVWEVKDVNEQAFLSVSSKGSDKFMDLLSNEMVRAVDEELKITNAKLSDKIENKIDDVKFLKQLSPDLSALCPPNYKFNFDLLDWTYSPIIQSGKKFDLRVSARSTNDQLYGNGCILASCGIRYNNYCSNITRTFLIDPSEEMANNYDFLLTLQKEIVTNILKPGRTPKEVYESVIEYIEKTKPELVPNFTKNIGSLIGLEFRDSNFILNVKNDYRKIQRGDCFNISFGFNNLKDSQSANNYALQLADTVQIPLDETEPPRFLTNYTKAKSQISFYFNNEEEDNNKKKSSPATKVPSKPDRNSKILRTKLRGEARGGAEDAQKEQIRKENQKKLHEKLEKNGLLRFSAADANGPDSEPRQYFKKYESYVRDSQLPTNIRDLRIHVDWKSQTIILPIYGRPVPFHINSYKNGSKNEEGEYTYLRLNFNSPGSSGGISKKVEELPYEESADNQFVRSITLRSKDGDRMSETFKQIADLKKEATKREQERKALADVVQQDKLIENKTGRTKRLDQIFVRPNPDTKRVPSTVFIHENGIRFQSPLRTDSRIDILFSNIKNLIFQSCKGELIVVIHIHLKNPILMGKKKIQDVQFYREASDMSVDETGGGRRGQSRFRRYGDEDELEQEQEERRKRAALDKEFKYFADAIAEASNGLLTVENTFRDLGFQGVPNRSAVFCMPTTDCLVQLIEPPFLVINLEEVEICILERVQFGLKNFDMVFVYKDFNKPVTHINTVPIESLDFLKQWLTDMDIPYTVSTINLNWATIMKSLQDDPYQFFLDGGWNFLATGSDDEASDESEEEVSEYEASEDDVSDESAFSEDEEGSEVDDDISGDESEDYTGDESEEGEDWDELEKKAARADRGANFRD

Take “Histone H2A type 3 (Homo sapiens) (from UniProt Q7L7L0) Q105A”: the “effect of a mutation on the interaction” value is “decreasing interaction strength”.
